Six proteins from publication PMC3911823 (The FEBS journal, 2011) can be followed below.

What all share (format): biochemical, rabbit (Oryctolagus cuniculus)
Substrate in data set [1]: CCOc1ccc2c(C(F)(F)F)cc(=O)oc2c1
To be noted: other: 2B4 E474Q; Michaelis-Menten fit; 37.0 °C.

Substrate in data set [2]: COc1ccc2c(C(F)(F)F)cc(=O)oc2c1
To be noted: other: 2B4 E474Q; Michaelis-Menten fit; 37.0 °C.

Substrate in data set [3]: CCOc1ccc2c(C(F)(F)F)cc(=O)oc2c1
To be noted: other: 2B4 H172Q; Michaelis-Menten fit; 37.0 °C.

Substrate in data set [4]: COc1ccc2c(C(F)(F)F)cc(=O)oc2c1
As to conditions: other: 2B4 H172Q; Michaelis-Menten fit; 37.0 °C.

Substrate in data set [5]: CCOc1ccc2c(C(F)(F)F)cc(=O)oc2c1
As to conditions: other: 2B4 WT; substrate O-dealkylation, Michaelis-Menten fit; 37.0 °C.

Substrate in data set [6]: COc1ccc2c(C(F)(F)F)cc(=O)oc2c1
As to conditions: other: 2B4 WT; substrate O-dealkylation, Michaelis-Menten fit; 37.0 °C.

Substrate in data set [7]: CCOc1ccc2c(C(F)(F)F)cc(=O)oc2c1
As to conditions: other: 2B4 L437A; Michaelis-Menten fit; 37.0 °C.

Substrate in data set [8]: COc1ccc2c(C(F)(F)F)cc(=O)oc2c1
To be noted: other: 2B4 L437A; Michaelis-Menten fit; 37.0 °C.

Substrate in data set [9]: CCOc1ccc2c(C(F)(F)F)cc(=O)oc2c1
As to conditions: other: 2B4 E474D; Michaelis-Menten fit; 37.0 °C.

Substrate in data set [10]: COc1ccc2c(C(F)(F)F)cc(=O)oc2c1
To be noted: other: 2B4 E474D; Michaelis-Menten fit; 37.0 °C.

Substrate in data set [11]: CCOc1ccc2c(C(F)(F)F)cc(=O)oc2c1
To be noted: other: 2B4 H172A; Michaelis-Menten fit; 37.0 °C.

Substrate in data set [12]: COc1ccc2c(C(F)(F)F)cc(=O)oc2c1
To be noted: other: 2B4 H172A; Michaelis-Menten fit; 37.0 °C.

Read-outs that look alike come from different tables or passages of the source.

B1: P450 2B4 E474Q (Oryctolagus cuniculus; E474Q) (protein)
chain: MAKKTSSKGKLPPGPSPLPVLGNLLQMDRKGLLRSFLRLREKYGDVFTVYLGSRPVVVLCGTDAIREALVDQAEAFSGRGKIAVVDPIFQGYGVIFANGERWRALRRFSLATMRDFGMGKRSVEERIQEEARCLVEELRKSKGALLDNTLLFHSITSNIICSIVFGKRFDYKDPVFLRLLDLFFQSFSLISSFSSQVFELFPGFLKHFPGTHRQIYRNLQEINTFIGQSVEKHRATLDPSNPRDFIDVYLLRMEKDKSDPSSEFHHQNLILTVLSLFFAGTETTSTTLRYGFLLMLKYPHVTERVQKEIEQVIGSHRPPALDDRAKMPYTDAVIHEIQRLGDLIPFGVPHTVTKDTQFRGYVIPKNTEVFPVLSSALHDPRYFETPNTFNPGHFLDANGALKRNEGFMPFSLGKRICLGEGIARTELFLFFTTILQNFSIASPVPPEDIDLTPRQSGVGNVPPSYQIRFLAR
Broadly, the Km is the substrate concentration at which the rate is half of its maximum. Usually kcat stands for the maximal rate divided by the concentration of active sites. A word on the kcat/Km: it is the second-order rate constant that governs catalysis at low substrate concentration. With B1, in [1], the Km was 64 ± 8 µM, the kcat worked out at 0.02 ± 0.0033 s⁻¹ and the specificity constant (kcat/Km) was 333 M⁻¹ s⁻¹. Further, in data set [2], the Michaelis-Menten constant (Km) came to 178 ± 17 µM and the kcat came out at 0.04 ± 0.005 s⁻¹.

B2: P450 2B4 H172Q (Oryctolagus cuniculus; H172Q) (protein)
chain: MAKKTSSKGKLPPGPSPLPVLGNLLQMDRKGLLRSFLRLREKYGDVFTVYLGSRPVVVLCGTDAIREALVDQAEAFSGRGKIAVVDPIFQGYGVIFANGERWRALRRFSLATMRDFGMGKRSVEERIQEEARCLVEELRKSKGALLDNTLLFQSITSNIICSIVFGKRFDYKDPVFLRLLDLFFQSFSLISSFSSQVFELFPGFLKHFPGTHRQIYRNLQEINTFIGQSVEKHRATLDPSNPRDFIDVYLLRMEKDKSDPSSEFHHQNLILTVLSLFFAGTETTSTTLRYGFLLMLKYPHVTERVQKEIEQVIGSHRPPALDDRAKMPYTDAVIHEIQRLGDLIPFGVPHTVTKDTQFRGYVIPKNTEVFPVLSSALHDPRYFETPNTFNPGHFLDANGALKRNEGFMPFSLGKRICLGEGIARTELFLFFTTILQNFSIASPVPPEDIDLTPRESGVGNVPPSYQIRFLAR
With B2, in data set [3], the Michaelis-Menten constant (Km) worked out at 48 ± 6 µM, the kcat was found to be 0.0283 ± 0.005 s⁻¹ and the specificity constant (kcat/Km) was found to be 667 M⁻¹ s⁻¹. In [4], the Km is 115 ± 15 µM, the kcat stood at 0.123 ± 0.0083 s⁻¹ and the kcat/Km amounted to 1000 M⁻¹ s⁻¹.

B3: P450 2B4 wild type (Oryctolagus cuniculus) (protein)
chain: MAKKTSSKGKLPPGPSPLPVLGNLLQMDRKGLLRSFLRLREKYGDVFTVYLGSRPVVVLCGTDAIREALVDQAEAFSGRGKIAVVDPIFQGYGVIFANGERWRALRRFSLATMRDFGMGKRSVEERIQEEARCLVEELRKSKGALLDNTLLFHSITSNIICSIVFGKRFDYKDPVFLRLLDLFFQSFSLISSFSSQVFELFPGFLKHFPGTHRQIYRNLQEINTFIGQSVEKHRATLDPSNPRDFIDVYLLRMEKDKSDPSSEFHHQNLILTVLSLFFAGTETTSTTLRYGFLLMLKYPHVTERVQKEIEQVIGSHRPPALDDRAKMPYTDAVIHEIQRLGDLIPFGVPHTVTKDTQFRGYVIPKNTEVFPVLSSALHDPRYFETPNTFNPGHFLDANGALKRNEGFMPFSLGKRICLGEGIARTELFLFFTTILQNFSIASPVPPEDIDLTPRESGVGNVPPSYQIRFLAR
As for B3, in data set [5], the Michaelis constant (Km) was found to be 25 ± 3 µM, the kcat came out at 0.16 ± 0.0067 s⁻¹ and the catalytic efficiency (kcat/Km) turned out to be 6000 M⁻¹ s⁻¹. In addition, in data set [6], the Km came out at 132 ± 6 µM, the kcat amounted to 0.188 ± 0.0033 s⁻¹ and the kcat/Km stood at 1330 M⁻¹ s⁻¹.

B4: P450 2B4 L437A (Oryctolagus cuniculus; L437A) (protein)
chain: MAKKTSSKGKLPPGPSPLPVLGNLLQMDRKGLLRSFLRLREKYGDVFTVYLGSRPVVVLCGTDAIREALVDQAEAFSGRGKIAVVDPIFQGYGVIFANGERWRALRRFSLATMRDFGMGKRSVEERIQEEARCLVEELRKSKGALLDNTLLFHSITSNIICSIVFGKRFDYKDPVFLRLLDLFFQSFSLISSFSSQVFELFPGFLKHFPGTHRQIYRNLQEINTFIGQSVEKHRATLDPSNPRDFIDVYLLRMEKDKSDPSSEFHHQNLILTVLSLFFAGTETTSTTLRYGFLLMLKYPHVTERVQKEIEQVIGSHRPPALDDRAKMPYTDAVIHEIQRLGDLIPFGVPHTVTKDTQFRGYVIPKNTEVFPVLSSALHDPRYFETPNTFNPGHFLDANGALKRNEGFMPFSLGKRICAGEGIARTELFLFFTTILQNFSIASPVPPEDIDLTPRESGVGNVPPSYQIRFLAR
For the protein B4, in data set [7], the Km stood at 25 ± 4 µM, the kcat is 0.045 ± 0.0033 s⁻¹ and the kcat/Km was found to be 2000 M⁻¹ s⁻¹. Besides, in data set [8], the Km came to 85 ± 8 µM, the kcat was determined as 0.03 ± 0.0033 s⁻¹ and the kcat/Km worked out at 333 M⁻¹ s⁻¹.

B5: P450 2B4 E474D (Oryctolagus cuniculus; E474D) (protein)
chain: MAKKTSSKGKLPPGPSPLPVLGNLLQMDRKGLLRSFLRLREKYGDVFTVYLGSRPVVVLCGTDAIREALVDQAEAFSGRGKIAVVDPIFQGYGVIFANGERWRALRRFSLATMRDFGMGKRSVEERIQEEARCLVEELRKSKGALLDNTLLFHSITSNIICSIVFGKRFDYKDPVFLRLLDLFFQSFSLISSFSSQVFELFPGFLKHFPGTHRQIYRNLQEINTFIGQSVEKHRATLDPSNPRDFIDVYLLRMEKDKSDPSSEFHHQNLILTVLSLFFAGTETTSTTLRYGFLLMLKYPHVTERVQKEIEQVIGSHRPPALDDRAKMPYTDAVIHEIQRLGDLIPFGVPHTVTKDTQFRGYVIPKNTEVFPVLSSALHDPRYFETPNTFNPGHFLDANGALKRNEGFMPFSLGKRICLGEGIARTELFLFFTTILQNFSIASPVPPEDIDLTPRDSGVGNVPPSYQIRFLAR
In the case of B5, in data set [9], the Michaelis constant (Km) came to 77 ± 10 µM and the turnover number (kcat) is 0.0067 ± 0.0017 s⁻¹. In data set [10], the Michaelis-Menten constant (Km) came out at 185 ± 14 µM, the catalytic constant (kcat) was 0.0633 ± 0.0033 s⁻¹ and the catalytic efficiency (kcat/Km) amounted to 333 M⁻¹ s⁻¹.

B6: P450 2B4 H172A (Oryctolagus cuniculus; H172A) (protein)
chain: MAKKTSSKGKLPPGPSPLPVLGNLLQMDRKGLLRSFLRLREKYGDVFTVYLGSRPVVVLCGTDAIREALVDQAEAFSGRGKIAVVDPIFQGYGVIFANGERWRALRRFSLATMRDFGMGKRSVEERIQEEARCLVEELRKSKGALLDNTLLFASITSNIICSIVFGKRFDYKDPVFLRLLDLFFQSFSLISSFSSQVFELFPGFLKHFPGTHRQIYRNLQEINTFIGQSVEKHRATLDPSNPRDFIDVYLLRMEKDKSDPSSEFHHQNLILTVLSLFFAGTETTSTTLRYGFLLMLKYPHVTERVQKEIEQVIGSHRPPALDDRAKMPYTDAVIHEIQRLGDLIPFGVPHTVTKDTQFRGYVIPKNTEVFPVLSSALHDPRYFETPNTFNPGHFLDANGALKRNEGFMPFSLGKRICLGEGIARTELFLFFTTILQNFSIASPVPPEDIDLTPRESGVGNVPPSYQIRFLAR
Regarding B6, in data set [11], the Km amounted to 26 ± 4 µM, the catalytic constant (kcat) was found to be 0.07 ± 0.005 s⁻¹ and the kcat/Km was found to be 2500 M⁻¹ s⁻¹. Also, in [12], the Michaelis constant (Km) was 126 ± 11 µM, the kcat came out at 0.0867 ± 0.01 s⁻¹ and the kcat/Km is 667 M⁻¹ s⁻¹.
